The text below walks through data of patent publication US20190145962A1 (TAO HEALTH LIFE PHARMA, published 2019).

T1 sequence (P05067 672-713): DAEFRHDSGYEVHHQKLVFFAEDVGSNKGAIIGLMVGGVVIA

The first test concerns the target T1, synthetic amylospheroids (synthetic ASPD) (UniProt P05067 672-713).
T1 construct: Spherical Abeta assembly of about 10 nm, made in vitro; In SPR it was solid-phased on the chip; In the imaging assay it was pre-incubated with peptide and added to neurons
Kind of test: SPR, synthetic ASPD solid-phased on the chip, peptide as analyte. How it is done: Synthetic ASPD were solid-phased on a chip and each peptide shown in Table 3 below was allowed to flow as an analyte. Then the dissociation constant (KD) was determined by surface plasmon resonance (SPR).
Two peptides (HNNW (SEQ ID NO: 27) and HPNW (SEQ ID NO: 28)) that could not inhibit the binding of ASPD to neurons in the evaluation performed in section 1 above were used as negative controls.
A general note: SPR reads the build-up and loss of mass on a sensor chip optically.
HNNW [HNNW (negative control peptide)]: the binding result is listed as “no binding”.
Still for that read-out and setting: for HPNW [HPNW (negative control peptide)] the value was “no binding”.

In another test the target is T1, synthetic amylospheroids (synthetic …). The experiment in a line: ASPD pre-incubated with peptide, imaging of ASPD bound to rat hippocampal neurons. How it is done:
A liquid mixture of peptide and synthetic ASPD was incubated at 4° C. for 15 minutes to pretreat the ASPD and this liquid mixture was added to primary cultured rat hippocampal neurons cultured in a 96-well plate.
After incubation at 37° C. for 15 minutes in a CO₂ incubator, the wells were washed with PBS. Then, 2% paraformaldehyde (50 μl/well) was added thereto for immobilization performed for 20 minutes at 37° C. and further 4% paraformaldehyde (50 μl/well) was added thereto for immobilization performed for 20 minutes at 37° C. After washing and blocking, a primary antibody solution containing anti-ASPD antibody (mASD3) and anti-MAP2 antibody (trade name: sc-20172, manufactured by SANTACRUZ) was added, which then was left overnight. After washing, a secondary antibody solution containing Alexa Fluoro (trademark) 568 anti-mouse antibody (trade name: A11031, manufactured by life technologies), Alexa Fluoro (trademark) 488 anti-rabbit antibody (trade name: A11034, manufactured by life technologies), and DAPI (trade name: D523, manufactured by Dojindo) was added and then fluorescence microscopic observation was performed.
Subsequently, steps 4 to 5 were performed as follows: From the microscopic observation data, a calibration curve as shown in FIG. 2 was drawn, an approximate curve was created within a range where linearity was maintained, and then ED₅₀ was calculated. Using, as an indicator, “titer” that is defined by the ratio of ED₅₀ of the ASPD treated with peptide to ED₅₀ of the ASPD alone, the ASPD-binding inhibitory ability of peptide was evaluated.
For HRNW (also called HRNW) [Peptide 02], the “ASPD-binding inhibitory ability (titer = ED50[ASPD+Peptide]/ED50[ASPD])” value (“ASPD-binding inhibitory ability” for short) was 1.5.
The same measure, in the same setting: the same measure for HTNW (also called HTNW) [Peptide 09]: 1.5; for HDNW (also called HDNW) [Peptide 04]: 1.5.
On the same count and under the same terms, the same measure for HFHW (also called HFHW) [Peptide 23]: 1.5; for HWNW (also called HWNW) [Peptide 06]: 1.5.
Still for that read-out and setting: for HFMW (also called HFMW) [Peptide 17] the value was 1.5; for HVNW (also called HVNW) [Peptide 11], 1.5.
For HHNW (also called HHNW) [Peptide 05], the “ASPD-binding inhibitory ability” value is 1.5.
On the same count and under the same terms, the same measure for HFYW (also called HFYW) [Peptide 24]: 1.5.
Still for that read-out and setting: for HKNW (also called HKNW) [Peptide 03] the value was 1.5.
As to HFEW (also called HFEW) [Peptide 19], the “ASPD-binding inhibitory ability” value is 1.5.
Same read-out and setting: the same measure for HFRW (also called HFRW) [Peptide 16]: 1.5.
As for HYNW (also called HYNW) [Peptide 08], the “ASPD-binding inhibitory ability” value was determined as 1.5.
Still for that read-out and setting: the same measure for HFKW (also called HFKW) [Peptide 22]: 1.5; for HANW (also called HANW) [Peptide 10]: 1.5; for HFDW (also called HFDW) [Peptide 18]: 1.5.
Still for that read-out and setting: the same measure for HFWW (also called HFWW) [Peptide 15]: 1.5.
On to HQNW (also called HQNW) [Peptide 07], for which the “ASPD-binding inhibitory ability” value was found to be 1.5.
On the same count and under the same terms, for HFIW (also called HFIW) [Peptide 14] the value was 1.5; for HFVW (also called HFVW) [Peptide 21], 1.5.
Same read-out and setting: for HFLW (also called HFLW) [Peptide 12] the value was 1.5; for HFGW (also called HFGW) [Peptide 13], 1.5.
Still for that read-out and setting: for HFAW (also called HFAW) [Peptide 20] the value was 1.5.
